Substitutions are numbered along the chain they refer to. Names may count otherwise. “And” between values parts separate entries of the source, which are not always exact repeats. Equal entries are not always repeated.

The labels stand for the following.
T1: OX40 (UniProt P43489 29-214)
T1 construct: also called O × 40
T1 sequence (looked up): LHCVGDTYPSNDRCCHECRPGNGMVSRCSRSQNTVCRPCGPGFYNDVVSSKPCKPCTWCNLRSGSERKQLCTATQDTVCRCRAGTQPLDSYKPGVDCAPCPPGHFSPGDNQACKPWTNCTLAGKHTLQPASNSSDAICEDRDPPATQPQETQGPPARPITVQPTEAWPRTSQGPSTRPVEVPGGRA

B1: A26-645 Lys149Cys K (bispecific antibody)
heavy: EVQLVESGGGLVQPGGSLRLSCAASGFTFTNYGIHWIRQAPGKGLEWVASISPSGGLTYYRDSVKGRFTISRDDAKNSPYLQMNSLRAEDTAVYYCATGGEGIFDYWGQGTLVTVSSASTKGPSVFPLAPSSKSTSGGTAALGCLVKDYFPEPVTVSWNSGALTSGVHTFPAVLQSSGLYSLSSVVTVPSSSLGTQTYICNVNHKPSNTKVDKKVEPKSCSGGGGSGGGGSGGGGSEVQLLESGGGLVQPGGSLRLSCAVSGIDLSNYAINWVRQAPGKCLEWIGIIWASGTTFYATWAKGRFTISRDSTTVYLQMNSLRAEDTAVYYCARTVPGYSTAPYFDLWGQGTLVTVSS
light: DIQMTQSPSSLSASVGDRVTITCRATQSIYNALAWYQQKPGKAPKLLIYNANTLHTGVPSRFSASGSGTDSTLTISSLQPEDFATYYCQQYYDYPLTFGGGTKVEIKRTVAAPSVFIFPPSDEQLKSGTASVVCLLNNFYPREAKVQWCVDNALQSGNSQESVTEQDSKDSTYSLSSTLTLSKADYEKHKVYACEVTHQGLSSPVTKSFNRGECSGGGGSGGGGSGGGGSDIVMTQSPSSVSASVGDRVTITCQSSPSVWSNFLSWYQQKPGKAPKLLIYEASKLTSGVPSRFKGSGSGTDFTLTISSLQPEDFATYYCGGGYSSISDTTFGCGTKVEIK
notes: Surface cysteine mutant of A26-645 (Kabat numbering); also called K149C CK; mutation 10
B2: A26-645 Thr116Cys H (bispecific antibody)
heavy: B1 heavy with T120C
light: B1 light with C149K
modifications: 645 Fv disulfide between Cys44 of SEQ ID NO 227 and Cys100 of SEQ ID NO 44 (Kabat); both cysteines are already in the letters
notes: Surface cysteine mutant of A26-645 (Kabat numbering); also called T116C CH1; mutation 1
B3: A26-645 Ser163Cys H (bispecific antibody)
heavy: B1 heavy with S160C
light: B1 light with C149K
modifications: 645 Fv disulfide between Cys44 of SEQ ID NO 227 and Cys100 of SEQ ID NO 44 (Kabat); both cysteines are already in the letters
notes: Surface cysteine mutant of A26-645 (Kabat numbering); also called S163C CH1; mutation 2
B4: A26-645 Ser171Cys K (bispecific antibody)
heavy: B1 heavy
light: B1 light with C149K, S171C
notes: Surface cysteine mutant of A26-645 (Kabat numbering); also called S171C CK; mutation 11
B5: A26-645 Ser182Cys H (bispecific antibody)
heavy: B1 heavy with S177C
light: B1 light with C149K
modifications: 645 Fv disulfide between Cys44 of SEQ ID NO 227 and Cys100 of SEQ ID NO 44 (Kabat); both cysteines are already in the letters
notes: Surface cysteine mutant of A26-645; also called A26-645 Ser180Cys H; S182C CH1
B6: A26-645 Ser82bCys H (bispecific antibody)
heavy: B1 heavy with S318C
light: B1 light with C149K
modifications: 645 Fv disulfide between Cys44 of SEQ ID NO 227 and Cys100 of SEQ ID NO 44 (Kabat); both cysteines are already in the letters
notes: Surface cysteine mutant of A26-645 in the 645 Fv heavy domain (Kabat numbering); also called S82bC 645 Fv Heavy; mutation 6
B7: A26-645 Ser77Cys K (bispecific antibody)
heavy: B1 heavy
light: B1 light with C149K, S308C
notes: Surface cysteine mutant of A26-645 in the 645 Fv light domain (Kabat numbering); also called S77C 645 Fv light; mutation 14

The target in the first assay is T2, human serum albumin (human, UniProt P02768 25-609).
T2 construct: also called HSA
In words: SPR (Biacore 3000), Fab-dsFv captured, antigen injected, 1:1 fit.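 Also: capture antibody amine-coupled on chip, 3 min antigen association then 20 min dissociation, antigen titrated, reference flow-cell and buffer blanks subtracted.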
Description: (§1) Covalent immobilisation of the capture antibody was achieved by standard amine coupling chemistry.
(§2) Each assay cycle consisted of firstly capturing the Fab-dsFv using a 1 min injection, before an association phase consisting of a 3 min injection of antigen, after which dissociation was monitored for 20 min. After each cycle, the capture surface was regenerated with 2×1 min injections of 40 mM HCl followed by 30 s of 5 mM NaOH. The flow rates used were 10 μl/min for capture, 30 μl/min for association and dissociation phases, and 10 μl/min for regeneration.
(§3) For kinetic assays, a titration of antigen was performed, a blank flow-cell was used for reference subtraction and buffer-blank injections were included to subtract instrument noise and drift.
In general, Kd refers to the constant that tells how readily two partners part at equilibrium. A low value points to tighter binding. By koff is commonly meant the first-order rate constant of dissociation. What is called kon is the second-order rate constant of association. As for B1, binding was characterised by a dissociation constant (Kd) of 1.72 nM, the off-rate (koff) came to 0.00025 s⁻¹ and the on-rate constant (kon) worked out at 145000 M⁻¹ s⁻¹.
On the same counts, the results for B2 are 1.87 nM, 0.000351 s⁻¹ and 188000 M⁻¹ s⁻¹.
In turn, B3 came in with a Kd of 3.34 nM, a koff of 0.000722 s⁻¹ and an on-rate (kon) of 216000 M⁻¹ s⁻¹.
On the same counts, the results for B4 are 2.06 nM, 0.000257 s⁻¹ and 125000 M⁻¹ s⁻¹.
As for B5, the Kd worked out at 1.95 nM, the koff was 0.000411 s⁻¹ and the kon was determined as 210000 M⁻¹ s⁻¹.
The corresponding values for B6 are 1.09 nM, 0.000257 s⁻¹ and 236000 M⁻¹ s⁻¹.
On the same counts, the results for B7 are 2.75 nM, 0.000282 s⁻¹ and 102000 M⁻¹ s⁻¹.

The target in another assay is T1, OX40. Described as above.
Description: as §1, §2, §3
On to B1, for which the equilibrium dissociation constant (Kd) is 0.231 nM and 0.23 nM; the dissociation rate constant (koff) came to 0.000107 s⁻¹; the kon came out at 465000 M⁻¹ s⁻¹.
In turn, B2 had a Kd of 0.27 nM, a koff of 0.000146 s⁻¹ and an on-rate constant (kon) of 540000 M⁻¹ s⁻¹.
On to B3, for which the Kd is 0.265 nM and 0.27 nM; the koff is 0.000146 s⁻¹; the kon amounted to 550000 M⁻¹ s⁻¹.
B4: the Kd is 0.194 nM and 0.19 nM; the koff was 9.24e-05 s⁻¹; the on-rate (kon) was 477000 M⁻¹ s⁻¹.
Regarding B5, the Kd is 0.247 nM and 0.25 nM; the dissociation rate constant (koff) is 0.000108 s⁻¹; the kon was 437000 M⁻¹ s⁻¹.
With B6, the Kd was 0.247 nM and 0.25 nM; the koff came out at 0.000117 s⁻¹; the on-rate (kon) was found to be 473000 M⁻¹ s⁻¹.
In the case of B7, the Kd is 0.248 nM and 0.25 nM; the off-rate (koff) came to 0.000117 s⁻¹; the kon amounted to 470000 M⁻¹ s⁻¹.

These data come from patent US20130066054A1 (UCB, published 2013).
